Experiments:
[1] = target: central region of the human metapneumovirus phosphoprotein (HMPV P residues 158-237) (human metapneumovirus, strain NL1-00); test: SAXS; Pced in solution at 3-6 mg/ml, 20 C; 20 mM Tris pH 7.5 with 150 mM NaCl, 800 mM NaCl, or NaCl plus 1 M NDSB-201; molecular weight from the volume of correlation Vc compared with the mass of a tetramer
[2] = target: core region of Pced (P_(core)), degradation fragment of HMPV P 158-237 found in the crystal (human metapneumovirus, strain NL1-00); test: crystal structure; vapor diffusion, 25 % PEG 3350, 100 mM HEPES pH 7.5, 20 C, crystal after ~142 days; 3.1 A, molecular replacement with the ab initio P_(core) model; 2 tetramers in the asymmetric unit

Substance | stoichiometry N [1] | stoichiometry N [2]
central region of the human metapneumovirus phosphoprotein (HMPV P residues 158-237) (domain or fragment) | 4 | –
core region of Pced (P_(core)), degradation fragment of HMPV P 158-237 found in the crystal (domain or fragment) | – | 4

— PMC3817118
